Test results: patent US20240042006A1 (KOREA UNIVERSITY RESEARCH AND BUSINESS FOUNDATION SEJONG …, published 2024)
Where a chain is given by its changes, count along the chain named. Names may count otherwise.

T1: PCNA1 (Sulfolobus solfataricus, UniProt P57766 1-249)
T1 construct: also called PCNA1 wild-type subunit
T1 sequence (looked up): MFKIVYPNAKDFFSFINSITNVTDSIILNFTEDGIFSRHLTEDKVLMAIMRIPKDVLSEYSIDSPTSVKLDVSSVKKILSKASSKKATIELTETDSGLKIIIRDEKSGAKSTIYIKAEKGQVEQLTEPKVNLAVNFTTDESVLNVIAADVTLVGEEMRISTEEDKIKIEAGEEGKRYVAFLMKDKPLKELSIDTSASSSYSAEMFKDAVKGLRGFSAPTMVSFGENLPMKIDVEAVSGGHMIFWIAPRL

T2: PCNA3dm (Sulfolobus solfataricus)
T2 construct: also called third scaffold fragment 310; PCNA3 Y73F/S170V mutant subunit
T2 chain: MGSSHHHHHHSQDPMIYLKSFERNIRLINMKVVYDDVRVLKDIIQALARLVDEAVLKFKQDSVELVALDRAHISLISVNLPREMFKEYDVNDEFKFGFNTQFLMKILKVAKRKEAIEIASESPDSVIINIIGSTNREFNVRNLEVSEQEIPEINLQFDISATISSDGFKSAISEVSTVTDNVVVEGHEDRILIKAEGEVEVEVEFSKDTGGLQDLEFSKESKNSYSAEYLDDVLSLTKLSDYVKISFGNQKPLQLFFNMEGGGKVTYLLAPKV

B1: PCNA2 (other, Sulfolobus solfataricus, UniProt Q97Z84 1-245, looked up)
chain: MKAKVIDAVSFSYILRTVGDFLSEANFIVTKEGIRVSGIDPSRVVFLDIFLPSSYFEGFEVSQEKEIIGFKLEDVNDILKRVLKDDTLILSSNESKLTLTFDGEFTRSFELPLIQVESTQPPSVNLEFPFKAQLLTITFADIIDELSDLGEVLNIHSKENKLYFEVIGDLSTAKVELSTDNGTLLEASGADVSSSYGMEYVANTTKMRRASDSMELYFGSQIPLKLRFKLPQEGYGDFYIAPRAD
notes: also called PCNA2 wild-type subunit
B2: PCNA2dm (other)
chain: MGSSHHHHHHSSGLVPRGSHMMKAKVIDAVSFSYILRTVGDFLSEANFIVTKEGIRVSGIDPSRVVFLDIFLPSSYFEGFEVSQEKEIIGFKLEDVNDILKRVLKDDTLILSSNESKLTLTFDGEFTRSFELPLIQVESTQPPSVNLEFPFKAQLLTITFADIIDELSDLGEVLNIHSKENKLYFEVIGDLVTVKVELSTDNGTLLEASGADVSSSYGMEYVANTTKMRRASDSMELYFGSQIPLKLRFKLPQEGYGDFYIAPRAD
notes: also called second scaffold fragment 210; PCNA2 S172V/A174V mutant subunit
B3: PCNA1dm (other)
chain: T1 sequence (looked up) with T112K, Y114K
notes: also called first scaffold fragment 110; PCNA1 T112K/Y114K mutant subunit
B4: PCNA3 (other, Sulfolobus solfataricus, UniProt P57765 1-244, looked up)
chain: MKVVYDDVRVLKDIIQALARLVDEAVLKFKQDSVELVALDRAHISLISVNLPREMFKEYDVNDEFKFGFNTQYLMKILKVAKRKEAIEIASESPDSVIINIIGSTNREFNVRNLEVSEQEIPEINLQFDISATISSDGFKSAISEVSTVTDNVVVEGHEDRILIKAEGESEVEVEFSKDTGGLQDLEFSKESKNSYSAEYLDDVLSLTKLSDYVKISFGNQKPLQLFFNMEGGGKVTYLLAPKV
notes: also called PCNA3 wild-type subunit

Tests used:
Test in all cases: BLI (BLItz, ForteBio); the partner on the sensor is not stated
PCNA1 = biological target: T1, PCNA1
PCNA3dm = biological target: T2, PCNA3dm
PCNA2dm = biological target: B2
PCNA2 = biological target: B1

**Q.** B1 was tested. Which Kd (PCNA1) did it give?
**A.** 6.31 nM

**Q.** B2 was tested. Which Kd (PCNA3dm) did it give?
**A.** 571 nM

**Q.** B3 was tested. Which Kd (PCNA2dm) did it give?
**A.** 2.65 nM

**Q.** B4 was tested. Which Kd (PCNA2) did it give?
**A.** 3170 nM
